Results on 2 molecules are retold here after patent US20040096935A1.

Several values for one entry are separate records, joined by “and”; a condition that tells them apart may be missing. Identical values can stand only once.

Test [1] concerns the target IL-17 receptor (immobilised receptor of the first BIAcore experiment of Example 8) (UniProt Q96F46). Put plainly: BIAcore SPR; IL-17 (R&D) at 25 ug/mL over immobilised receptor. (In general: Surface plasmon resonance follows binding to a sensor surface in real time, without labels.)
The target is the same in test [2]. The test can be described thus: BIAcore SPR; conditioned CHO supernatant over immobilised receptor; IL-20 concentration estimated ~25 ug/mL; pC4 vector control medium ~20 RU.

Consider “recombinant human IL-17 (R&D Systems) (from UniProt Q16552 20-155) (ligand)”, for which the binding response (RU) in test [1] is 60 RU.

B1: recombinant human IL-20 expressed in CHO cells (ligand)
chain: RSPKSKRKGQGRPGPLAPGPHQVPLDLVSRMKPYARMEEYERNIEEMVAQLRNSSELAQRKCEVNLQLWMSNKRSLSPWGYSINHDPSRIPVDLPEARCLCLGCVNPFTMQEDRSMVSVPVFSQVPVRRRLCPPPPRTGPCRQRAVMETIAVGCTCIF
As for B1, in test [2], the binding response (RU) is 115 RU and 65 RU.
